According to article doi:10.1101/2023.01.20.524748, “A Novel Monoclonal Antibody Targeting a Large Surface of the Receptor Binding Motif Shows Pan-neutralizing SARS-CoV-2 Activity Including BQ.1.1 Variant” (bioRxiv, 2023):

B1: 17T2 mAb (human recombinant monoclonal IgG1) (antibody, V domains shown)
VH: QVQLVQSGPEVKKPGTSVKVSCKAPVFTFSISAVQWVRQARGQRLEWIGWIVVGSGNTNYAQNFQERVTITTDMSTGTVYMELSGLRSEDTAMYYCAAPYCNRTTCYDGFDLWGQGTMVTVSS
VL: EIVLTQSPGTLSLSPGERATLSCRASQSISSNYLAWYQQKPGQAPRLLIYGASSRATGIPDRFSGSGSGTDFTLSINRLEPEDFAMYYCQHYGGLSRWTFGQGTKVEIK
B2: 17T2 Fab fragment (Fab, V domains shown)
VH: B1 VH
VL: B1 VL
notes: also called Fab 17T2

Assays:
[1] = target: T1, RBD of the WH1 (ancestral) SARS-CoV-2 spike protein (Severe acute respiratory syndrome …, UniProt P0DTC2); experiment: ELISA; conditions: both partners purified
T1 construct: also called RBD from the ancestral variant; WH1 RBD

[2] = target: T2, B.1.1.529 (BA.1) S1 + S2 Trimer-His Recombinant Protein (SARS-CoV-2 Omicron B.1.1.529 (BA.1), strain); experiment: cryo-EM structure; conditions: both partners purified
T2 construct: also called Omicron BA.1 trimeric spike; BA.1 spike

Binder | binding result [1] | stoichiometry N [2] [Fab per spike trimer]
B1 | binds | –
B2 | – | 3
